Results on 18 sequences are retold here after the DeepSol protein solubility set.

This data set in a line: soluble on expression in E. coli; label from the status in PepcDB or PDB records.
“MGSDKIHHHHHHVTYGDNVKPINDALLTEFPKEKRYLVYDKKFVKNPEAWSAEYALPYRRLRFIRLAYLLATSKHLFIDNYIGEYSVAPIRQGTKRIQLWHAAGTLKKFGLTSSRSLMVPKHVLRRFKRVYQRYGDFIVPGEACAKQFMAPHDLHRTVFKTLGVPRTDYWFNEQHQTVKKQLSDIYVKPKRRILLYAPTYREYNGMEGQTVRQLEQLTDQGWTILVKLHPTVRSMFTHQKAHVHFVTDEYSINDYLLITDVLVTDYSSIPFESCLLGVPTVLYTPDIDTYRQIPGIIDSYPDPLPVTCTDQFEIMLNWINSDVSLQESRMAMEQFKTIWYTEQPGQATRRIVDHYYRKVR”: the “soluble on expression in E. coli” value is on record as “not soluble”.
Turning to “MGSDKIHHHHHHYLPDDEPKKLIVNAMMQTENNDNRIYLHYTGWTATTPVTDGIIHLYINGKLSETITAEDDYYPVKSIFRTGDKVKIEASSENGKYKAKAETRISAPLQIINVDTTYISLRDYNSWVGGKPVYDNYLRLNIQLKQPDIEAENTYYRLEIKQIFYSHKWHDGRDTLSIDTTYNYNYIYDTALTDGKPGHAIDEGFELIQKWNNYFGLFKSCYFKNREYNMTIDLKEDINYIHIDSQKAERYISIRFYSISESEHRYLYAMSSALDFDAENFIYAVPLIPNNIKGGIGIFSIANQVKYKLKEENCQDRY”, the “soluble on expression in E. coli” value is given as “not soluble”.
With “MGSEILVGIGEFRVAKGAVLKTIGLGSCVGIALYDPKLRLGGLAHVMLPQSGNGTKRSAKYADHAVEMMTEAMERLGSDRKRIVAKMAGGAQIFKHMTMDMLRIGDRNAEAIRTILRDYGIRIVSEDLGGDEGRTVYFFTNDGRMLVKYSRGGELWI” the entry was “soluble”; with “MGSELLDLSFLSEEEKDLILSVLQRDEEVRKADEKRIRRLKNELLEIKRKGAKRGSQHYSDRTCARCQESLGRLSPKTNTCRGCNHLVCRDCRIQESNGTWRCKVCAKEIEMKKATGDWFYDQKVNRFAYRTGSEIIRMSLRHKPAVSKR”, “soluble”.
With “MGSGEPNPAGKKKKYLKAALYVGDLDPDVTEDMLYKKFRPAGPLRFTRICRDPVTRSPLGYGYVNFRFPADAEWALNTMNFDLINGKPFRLMWSQPDDRLRKSGVGNIFIKNLDKSIDNRALFYLFSAFGNILSCKVVCDDNGSKGYAYVHFDSLAAANRAIWHMNGVRLNNRQVYVGRFKFPEERAAEVRTRDRATFTNVFVKNIGDDIDDEKLKELFCEYGPTESVKVIRDASGKSKGFGFVRYETHEAAQKAVLDLHGKSIDGKVLYVGRAQKKIERLAELRRRFERLRLKEKSRPPGVPIYIKNLDETINDEKLKEEFSSFGSISRAKVMMEVGQGKGFGVVCFSSFEEATKAVDEMNGRIVGSKPLHVTLGQARRRC” the entry was “soluble”; with “MGSITENTSWNKEFSAEAVNGVFVLCKSSSKSCATNDLARASKEYLPASTFKIPNAIIGLETGVIKNEHQVFKWDGKPRAMKQWERDLTLRGAIQVSAVPVFQQIAREVGEVRMQKYLKKFSYGNQNISGGIDKFALEGQLRISAVNQVEFLESLYLNKLSASKENQLIVKEALVTEAAPEYLVHSKTGFSGVGTESNPGVAWWVGWVEKETEVYFFAFNMDIDNESKLPLRKSIPTKIMESEGIIGG”, “soluble”; with “MGSNPPASPLQDNLVIALHSYEPSHDGDLGFEKGEQLRILEQSGEWWKAQSLTTGQEGFIPFNFVAKANSLEPEPWFFKNLSRKDAERQLLAPGNTHGSFLIRESESTAGSFSLSVRDFDQNQGEVVKHYKIRNLDNGGFYISPRITFPGLHELVRHYTNASDGLCTRLSRPCQT”, “soluble”.
In the case of “MGSQFLLSVREFMQTRYYAKKTIEAYLHWITRYIHFHNKKHPSLMGDKEVEEFLTYLAVQGKVATKTQSLALNSLSFLYKEILKTPLSLEIRFQRSQLERKLPVVLTRDEIRRLLEIVDPKHQLPIKLLYGSGLRLMECMRLRVQDIDFDYGAIRIWQGKGGKNRTVTLAKELYPHLKEQIALAKRYYDRDLHQKNYGGVWLPTALKEKYPNAPYEFRWHYLFPSFQLSLDPESDVMRRHHMNETVLQKAVRRSAQEAGIEKTVTCHTLRHSFATHLLEVGADIRTVQEQLGHTDVKTTQIYTHVLDRGASGVLSPLSRL”, the “soluble on expression in E. coli” value is “soluble”.
As to “MGSSHHHHHHGKTIFVIVPTNEEQVAFLEALAKQDELNFDWQNPPTEPGQPVVILIPSDMVEWFLEMLKAKGIPFTVYVEEGGSENLYFQGGGGGGMPPPLPHRRATRACALVAAVALVLVLPTSRARTVGMRSMSAYTEAQQLHTRKFLDGFVQSMPDLHNIWTGDDFCAWKGVTCLRDGVSVSATNWVQLAVPPGRLPEVSSADVDVSQVFVTSISVRANGRNLSGTLPASWGLLQNLRKVRLESNSLTGSLPPEWSGLRSLRELYLSNNNLTGTLPASWGESMKSLAILSLDRNALAGTLPPEWGRMKSMQALVLESNQLSGTLPAEWRFMRAASTLMIGRNYLSGTLPHEWAEMSVMEWMDLHSNRLTGWLPAAWATMTLLNTLLLFDNGFTGTLPTEWARLEFLEELRMQDNVLVGTLPASWSAMVLMQVLDISENTLSGTLPVLWSSMQSLDTLSIRDNQLSGSLPIEWRTLPKIMHLHLEGNALCGCLPLNWTSRYVAVEVDEAVTSVNCATENACNDVNLDSISDKISSSCSSSTSPNGGRRR”, the “soluble on expression in E. coli” value is “not soluble”.
In the case of “MGSSHHHHHHGKTIFVIVPTNEEQVAFLEALAKQDELNFDWQNPPTEPGQPVVILIPSDMVEWFLEMLKAKGIPFTVYVEEGGSENLYFQGGGGGGRRLFLLLAWQPSFAKHLSELEPVPQRAPVEKRRRQHIPLSLQAREELSRKSNELQYHVVTQDWFGQRVDDFVTQHHPEWDYETVKRLVQQGHIYRYRKNGKKRYTRLTDRLEFDELVVVPTASFWERQLAPPSGVELQSSSTSQQQERRQKFHLSAKTREMAQEMVLFKNEHVIVINKPSGVPIMPTHDPLAMNITDLLPAWRYTNTQTPVICHNLDTETSGCVVLARSANTHRMLGRMFVKRVVPNSVYWGFAVGKPPVNFGRIRMHFEVQKGQGGDVIVARPTPTADSKVGIAEFVVNASALEFGSFISFYPLTTRRHQERIMAAHALRAPLLGDAKYGGESAFPHSLSLFWDPARKDVPLHLHHRKIQLPYKNGAGEFVCVTAPLPPHMEKTFKRLGWPVDADDPLIPG”, the “soluble on expression in E. coli” value was “not soluble”.
With “MGSSHHHHHHSQDMDKNELVQKAKLAEQAERYDDMAACMKSVTEQGAELSNEERNLLSVAYKNVVGARRSSWRVVSSIEQKTEGAEKKQQMAREYREKIETELRDICNDVLSLLEKFLIPNASQAESKVFYLKMKGDYYRYLAEVAAGDDKKGIVDQSQQAYQEAFEISKKEMQPTHPIRLGLALNFSVFYYEILNSPEKACSLAKTAFDEAIAELDTLSEESYKDSTLIMQLLRDNLTLWTSDTQGDEAEAGEGGEN”, the “soluble on expression in E. coli” value is “soluble”.
Under “MGSSHHHHHHSQDPNSLEVLFQGPMAGGRDRGDLAARQLVFLLPEHLKDASKKKKKSSLLFVKLANPHSGEGATYLIDMCLQQLFEIKVFKEKHHSWFINQSVQSGGLLHFATPMDPLFLLLHYLLKAGKEGKYQPLDQVVVDDTFPDCTLLLRFPELEKSLRHVTEEKEVNSKKYYKYSSEKTLKWLEKKVNQTVVALKANNVNVGARVQSSAYFSGGQVSRDKEEDYVRYAHGLISDYIPKELSDDLSKFLKLPEPPASLPNPPSKKLKLSDEPVEAKEDYTKFNTKDLKTGKKNSKMTAAQKALAKVDKSGMKSIDAFFGAKNKKTGKI” stands “soluble”.
With “MGSSHHHHHHSSGENLYFQGHMNVLVIGRGGREHAIAWKAAQSPLVGKLYVAPGNPGIADVAELVHIDELDIEALVQFAKQQAIDLTIVGPEAPLASGIVDRFMAEGLRIFGPSQRAALIEGSKAFAKELMKKYGIPTADHAAFTSYEEAKAYIEQKGAPIVIKADGLAAGKGVTVAQTVEEALAAAKAALVDGQFGTAGSQVVIEEYLEGEEFSFMAFVNGEKVYPLAIAQDHKRAYDGDEGPNTGGMGAYSPVPQISDEMMDAALEAILRPAAKALAAEGRPFLGVLYAGLMATANGPKVIEFNARFGDPEAQVVLPRLKTDLVEAVLAVMDGKELELEWTDEAVLGVVLAAKGYPGAYERGAEIRGLDRISPDALLFHAGTKREGGAWYTNGGRVLLLAAKGETLAKAKEKAYEQLAAIDCDGLFYRRDIGRRAIERASAAYTRMKGR” the entry was “soluble”; with “MGSSHHHHHHSSGLVIRGSHMRIALMQHTARPLDPQHNLDLIDDAAARASEQGAQLLLTPELFGFGYVPSQICAQVSAEQVDAARSRLRGIARDRGIALVWSLPGPEGPEQRGITAELADEHGEVLASYQKVQLYGPEEKAAFVPGEQPPPVLSWGGRQLSLLVCYDVEFPEMVRAAAARGAQLVLVPTALAGDETSVPGILLPARAVENGITLAYANHCGPEGGLVFDGGSVVVGPAGQPLGELGVEPGLLVVDLPDQSQDAGSDSADYLQDRRAELHRNWL”, “soluble”; with “MGSSHHHHHHSSGLVPRGSHGLVPRGSHMKKLKLHGFNNLTKSLSFCIYDICYAKTAEERDGYIAYIDELYNANRLTEILSETCSIIGANILNIARQDYEPQGASVTILVSEEPVDPKLIDKTEHPGPLPETVVAHLDKSHICVHTYPESHPEGGLCTFRADIEVSTCGVISPLKALNYLIHQLESDIVTIDYRVRGFTRDINGMKHFIDHEINSIQNFMSDDMKALYDMVDVNVYQENIFHTKMLLKEFDLKHYMFHTKPEDLTDSERQEITAALWKEMREIYYGRNMPAV”, “soluble”.
Under “MGSSHHHHHHSSGLVPRGSHMAAMMSLNDFLSSVLPVSEQFEYLSLQSIPLETHAVVTPNKDDKRVPKSTIKTQHFFSLFHQGKVFFSLEVYVYVTLWDEADAERLIFVSKADTNGYCNTRVSVRDITKIILEFILSIDPNYYLQKVKPAIRSYKKISPELISAASTPARTLRILARRLKQSGSTVLKEIESPRFQQDLYLSFTCPREILTKICLFTRPASQYLFPDSSKNSKKHILNGEELMKWWGFILDRLLIECFQNDTQAKLRIPGEDPARVRSYLRGMKYPLWQVGDIFTSKENSLAVYNIPLFPDDPKARFIHQLAEEDRLLKVSLSSFWIELQERQEFKLSVTSSVMGISGYSLATPSLFPSSADVIVPKSRKQFRAIKKYITGEEYDTEEGAIEAFTNIRDFLLLRMATNLQSLTGKREHRERNQPVPASNINTLAITMLKPRKKAKALPKT” stands “soluble”; under “MGSSHHHHHHSSGLVPRGSHMASASAAGGQQSFDLLVIGGGSGGLACAKEAAQLGKKVAVADYVEPSPRGTKWGLGGTCVNVGCIPKKLMHQAALLGGMIRDAHHYGWEVAQPVQHNWKTMAEAVQNHVKSLNWGHRVQLQDRKVKYFNIKASFVDEHTVRGVDKGGKATLLSAEHIVIATGGRPRYPTQVKGALEYGITSDDIFWLKESPGKTLVVGASYVALECAGFLTGIGLDTTVMMRSIPLRGFDQQMSSLVTEHMESHGTQFLKGCVPSHIKKLPTNQLQVTWEDHASGKEDTGTFDTVLWAIGRVPETRTLNLEKAGISTNPKNQKIIVDAQEATSVPHIYAIGDVAEGRPELTPTAIKAGKLLAQRLFGKSSTLMDYSNVPTTVFTPLEYGCVGLSEEEAVALHGQEHVEVYHAYYKPLEFTVADRDASQCYIKMVCMREPPQLVLGLHFLGPNAGEVTQGFALGIKCGASYAQVMQTVGIHPTCSEEVVKLHISKRSGLEPTVTGCCG”, “soluble”; under “MGSSHHHHHHSSGLVPRGSHMEEEMMILGVDGGSTKTLAIVFDERSERIMGVGISGPSNFTNAPRETAESNISDAVRKACSEAGTDLDGIGIRVFGLAGIGDSREATELGKDIVRSIVGHADVYSDGLGAYKFANLNDDGVVFAPGTGSVGFIKNGSDPERFGGWGWFIGDEASASWMAKQAILFAEREHDGIAETGFLDVVRRYFGMDLYETVYAISKEKIAKRVVAALAPQVSAMARSGNRYAISIFEESSSYIADLLNAKSRIFGRSGKYSVLGGTMLAGDFYRDMIRKKSSVDVSIYYGYQVAIGDVLIGIEKKGSISVDLRNKMIDQLNSILENKKEDIKKFLFLDSVPTS”, “soluble”.
